Assay results taken from patent US20110257371A1 (Teva, published 2011).
Where no end group is shown, it is not given here. The star is where a group is joined. Biotin = O=C1N[C@H]2[C@H](CS[C@H]2CCCCC(=O)*)N1

T1: S34A
T1 sequence (peptide, N-terminal biotin (p-0192)): NNFVPTNVGAKAF

T2: V32A
T2 sequence (peptide, N-terminal biotin (p-0192)): NNFVPTNAGSKAF

T3: K35A
T3 sequence (peptide, N-terminal biotin (p-0192)): NNFVPTNVGSAAF

T4: G33A (ends and bridges not checked)
T4 peptide: Biotin-NNFVPTNVASKAF

T5: F37A (ends and bridges not checked)
T5 peptide: Biotin-NNFVPTNVGSKAA

T6: human α-CGRP (human, not fully specified; C-terminal amide (CONH2) as printed; N-biotinylated in the Biacore assays)
T6 construct: Full-length 37-residue peptide; also called α-Hu; α-human
T6 peptide: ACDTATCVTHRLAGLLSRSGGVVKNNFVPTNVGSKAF

T7: rat α-CGRP (rat, not fully specified; C-terminal amide (CONH2) as printed; N-biotinylated in the Biacore assays)
T7 construct: also called α-Rat; α-rat
T7 peptide: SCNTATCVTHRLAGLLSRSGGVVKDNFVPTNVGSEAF

T8: rat β-CGRP (rat, not fully specified; C-terminal amide (CONH2) as printed; N-biotin on chip)
T8 construct: also called β-rat
T8 peptide: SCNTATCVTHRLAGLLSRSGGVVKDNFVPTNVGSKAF

T9: human β-CGRP (human, not fully specified; C-terminal amide (CONH2) as printed; N-biotin on chip)
T9 construct: also called β-human
T9 peptide: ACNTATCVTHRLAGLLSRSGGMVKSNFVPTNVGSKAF


Assays:
S34A = molecular target: T1, S34A; assay: Biacore alanine scan, 25 °C, N-biotinylated fragment on SA chip, G1 Fab titrated; against the wild-type 25-37 fragment
V32A = molecular target: T2, V32A; assay: as above
K35A = molecular target: T3, K35A; assay: as above
G33A = molecular target: T4, G33A; assay: as above
Experimental: (§1) Interaction analysis was conducted at 25° C. on a Biacore 3000™ system equipped with streptavidin-coated (SA) sensor chips (Biacore AB, Uppsala, Sweden) using a standard Biacore running buffer (HBS-P). […] Each amino acid between position 27-37 was then mutated individually to alanine and expressed the fold loss in affinity compared to the wild-type fragment. […] Fab fragments were titrated over the chip using 1 μM as the top concentration of a two-fold dilution series. Association and dissociation phases were monitored at 100 μl/min for 1 minute and 5 minutes respectively. Surfaces were regenerated with a mixture of 35% ethanol+25mM NaOH+0.5M NaCl.

F37A = molecular target: T5, F37A; assay: as above
Experimental: as §1

human α-CGRP [1] = molecular target: T6, human α-CGRP; assay: Biacore, N-biotin-CGRP on chip, 25 C
rat α-CGRP [2] = molecular target: T7, rat α-CGRP; assay: Biacore, N-biotin-CGRP on chip, 25 C
human α-CGRP [3] = molecular target: T6, human α-CGRP; assay: Biacore, ratio of KD at 25 C, reference rat α-CGRP
human α-CGRP [4] = molecular target: T6, human α-CGRP; assay: Biacore, N-biotin-CGRP on chip, 37 C
rat β-CGRP = molecular target: T8, rat β-CGRP; assay: Biacore, N-biotin-CGRP on chip, 37 C
human β-CGRP = molecular target: T9, human β-CGRP; assay: Biacore, N-biotin-CGRP on chip, 37 C
rat α-CGRP [5] = molecular target: T7, rat α-CGRP; assay: Biacore, N-biotin-CGRP on chip, 37 C

| Fold loss in affinity (S34A) [fold] | Fold loss in affinity (V32A) [fold] | Fold loss in affinity (K35A) [fold] | Fold loss in affinity (G33A) [fold] | Fold loss in affinity (F37A) [fold] | T1/2 (human α-CGRP [1]) [h] | T1/2 (rat α-CGRP [2]) [h] | fold more potent than for rat α-CGRP (human α-CGRP [3]) [fold] | T1/2 (human α-CGRP [4]) [h] | T1/2 (rat β-CGRP) [h] | T1/2 (human β-CGRP) [h] | T1/2 (rat α-CGRP [5]) [h] | Binder |
| --- | --- | --- | --- | --- | --- | --- | --- | --- | --- | --- | --- | --- |
| 10.9 | 6.1 | 8.1 | 504 | 339 |  |  |  |  |  |  |  | Fab fragment of antibody G1 (Fab, V domains shown, also called Purified Fab fragments of antibody G1) VH: EVQLVESGGGLVQPGGSLRLSCAASGFTFSNYWISWVRQAPGKGLEWVAEIRSESDASATHYAEAVKGRFTISRDNAKNSLYLQMNSLRAEDTAVYYCLAYFDYGLAIQNYWGQGTLVTVSS VL: EIVLTQSPATLSLSPGERATLSCKASKRVTTYVSWYQQKPGQAPRLLIYGASNRYLGIPARFSGSGSGTDFTLTISSLEPEDFAVYYCSQSYNYPYTFGQGTKLEIK |
|  |  |  |  |  | 24.7 | 3.12 | 40 | 5.3 | 2.45 | 2.76 | 0.48 | antibody G1 (antibody, human IgG2, kappa, V domains shown, Humanized IgG2 delta-a monoclonal derived from muMAb7E9; heavy chain entry includes the modified IgG2 constant region; also called anti-CGRP antibody G1) VH: EVQLVESGGGLVQPGGSLRLSCAASGFTFSNYWISWVRQAPGKGLEWVAEIRSESDASATHYAEAVKGRFTISRDNAKNSLYLQMNSLRAEDTAVYYCLAYFDYGLAIQNYWGQGTLVTVSS VL: EIVLTQSPATLSLSPGERATLSCKASKRVTTYVSWYQQKPGQAPRLLIYGASNRYLGIPARFSGSGSGTDFTLTISSLEPEDFAVYYCSQSYNYPYTFGQGTKLEIKR |
